# Experimental data as given in article PMC4052440.
# B1: yeast Atm1p (Saccharomyces cerevisiae S288C) (protein)
# chain: SPVIFTVSKLSTQRPLLFNSAVNLWNQAQKDITHKKSVEQFSSAPKVKTQVKKTSKAPTLSELKILKDLFRYIWPKGNNKVRIRVLIALGLLISAKILNVQVPFFFKQTIDSMNIAWDDPTVALPAAIGLTILCYGVARFGSVLFGELRNAVFAKVAQNAIRTVSLQTFQHLMKLDLGWHLSRQTGGLTRAMDRGTKGISQVLTAMVFHIIPISFEISVVCGILTYQFGASFAAITFSTMLLYSIFTIKTTAWRTHFRRDANKADNKAASVALDSLINFEAVKYFNNEKYLADKYNGSLMNYRDSQIKVSQSLAFLNSGQNLIFTTALTAMMYMGCTGVIGGNLTVGDLVLINQLVFQLSVPLNFLGSVYRDLKQSLIDMETLFKLRKNEVKIKNAERPLMLPENVPYDITFENVTFGYHPDRKILKNASFTIPAGWKTAIVGSSGSGKSTILKLVFRFYDPESGRILINGRDIKEYDIDALRKVIGVVPQDTPLFNDTIWENVKFGRIDATDEEVITVVEKAQLAPLIKKLPQGFDTIVGERGLMISGGEKQRLAIARVLLKNARIMFFDEATSALDTHTEQALLRTIRDNFTSGSRTSVYIAHRLRTIADADKIIVLDNGRVREEGKHLELLAMPGSLYRELWTIQEDLDHLENELKDQQEL
# B2: yeast Atm1p (Saccharomyces cerevisiae S288C; R284E) (protein)
# chain: SPVIFTVSKLSTQRPLLFNSAVNLWNQAQKDITHKKSVEQFSSAPKVKTQVKKTSKAPTLSELKILKDLFRYIWPKGNNKVRIRVLIALGLLISAKILNVQVPFFFKQTIDSMNIAWDDPTVALPAAIGLTILCYGVARFGSVLFGELRNAVFAKVAQNAIRTVSLQTFQHLMKLDLGWHLSRQTGGLTRAMDRGTKGISQVLTAMVFHIIPISFEISVVCGILTYQFGASFAAITFSTMLLYSIFTIKTTAWRTHFERDANKADNKAASVALDSLINFEAVKYFNNEKYLADKYNGSLMNYRDSQIKVSQSLAFLNSGQNLIFTTALTAMMYMGCTGVIGGNLTVGDLVLINQLVFQLSVPLNFLGSVYRDLKQSLIDMETLFKLRKNEVKIKNAERPLMLPENVPYDITFENVTFGYHPDRKILKNASFTIPAGWKTAIVGSSGSGKSTILKLVFRFYDPESGRILINGRDIKEYDIDALRKVIGVVPQDTPLFNDTIWENVKFGRIDATDEEVITVVEKAQLAPLIKKLPQGFDTIVGERGLMISGGEKQRLAIARVLLKNARIMFFDEATSALDTHTEQALLRTIRDNFTSGSRTSVYIAHRLRTIADADKIIVLDNGRVREEGKHLELLAMPGSLYRELWTIQEDLDHLENELKDQQEL
# Substrate: Nc1ncnc2c1ncn2[C@@H]1O[C@H](COP(=O)(O)OP(=O)(O)OP(=O)(O)O)[C@@H](O)[C@H]1O
# Experiment: ATPase assay
# Assay type: biochemical, Saccharomyces cerevisiae
# Settings: Mg-ATP
# [1] = no cluster, table prints the error as ± 5.3
Protein,Km [1] [µM],kcat [1] [s⁻¹],"Km (from the cluster-activation fit, table title prints R48E, column R284E) [µM]"
B1,54.6 ± 0.4,0.0322 ± 0.0005,–
B2,–,–,55.0 ± 16.5
